Source: article doi:10.1101/2023.10.27.564453

Molecular target: MIK2 ectodomain (MIK2^LRR), residues 45-707, 6 x His-MBP tagged (Arabidopsis thaliana) (UniProt Q8VZG8)
Experiment: MST

Sequence of UniProt Q8VZG8 (Q8VZG8 45-707): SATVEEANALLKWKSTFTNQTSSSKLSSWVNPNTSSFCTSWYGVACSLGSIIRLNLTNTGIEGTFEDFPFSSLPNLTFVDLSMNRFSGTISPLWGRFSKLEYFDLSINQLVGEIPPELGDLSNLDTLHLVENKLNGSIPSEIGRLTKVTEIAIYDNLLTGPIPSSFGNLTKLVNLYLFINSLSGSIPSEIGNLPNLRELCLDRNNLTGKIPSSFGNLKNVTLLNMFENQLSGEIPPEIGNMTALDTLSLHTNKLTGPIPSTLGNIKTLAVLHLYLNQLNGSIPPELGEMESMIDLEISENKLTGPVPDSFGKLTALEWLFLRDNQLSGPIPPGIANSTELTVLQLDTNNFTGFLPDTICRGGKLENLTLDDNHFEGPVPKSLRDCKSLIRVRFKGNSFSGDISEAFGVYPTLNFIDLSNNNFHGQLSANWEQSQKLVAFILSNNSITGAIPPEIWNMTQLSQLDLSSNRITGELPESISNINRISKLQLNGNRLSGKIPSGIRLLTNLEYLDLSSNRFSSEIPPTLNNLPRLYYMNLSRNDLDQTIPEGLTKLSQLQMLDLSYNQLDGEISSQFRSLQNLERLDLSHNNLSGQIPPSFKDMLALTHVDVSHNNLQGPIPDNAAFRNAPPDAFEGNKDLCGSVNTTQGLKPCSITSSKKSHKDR

| Kd | Ki | Substance |
| --- | --- | --- |
| 22 nM | – | 5-FAM-SCOOP12 peptide (N-terminally 5-FAM labelled) (from UniProt B3H7I1 44-78) |
| 13.5 nM | – | 5-FAM-SCOOP10 peptide (SCOOP10#2, N-terminally 5-FAM labelled) (from UniProt Q9LU08 30-98) |
| – | 40.1 nM | SCOOP12 peptide (unlabelled) (from UniProt B3H7I1 44-78) |
